The target in one experiment is T1, BSA蛋白 (UniProt P02769 25-607).
T1 construct: Control protein in the ELISA; also called 对照蛋白
The experiment can be described thus: ELISA, BSA coated at 2 μg/mL, dilution series of B48, detected by anti-HA and HRP goat anti-mouse IgG. For orientation: ELISA stands for enzyme-linked immunosorbent assay.

The target in another experiment is T2, BCMA蛋白 (human, UniProt Q02223 1-54).
T2 construct: extracellular domain; also called 抗原BCMA; B cell maturation antigen
T2 sequence (looked up): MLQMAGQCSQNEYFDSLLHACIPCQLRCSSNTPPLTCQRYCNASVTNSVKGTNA
Put plainly: ELISA, BCMA coated at 2 μg/mL, dilution series of B48, detected by anti-HA and HRP goat anti-mouse IgG.

T1 sequence (P02769 25-607 limits assumed): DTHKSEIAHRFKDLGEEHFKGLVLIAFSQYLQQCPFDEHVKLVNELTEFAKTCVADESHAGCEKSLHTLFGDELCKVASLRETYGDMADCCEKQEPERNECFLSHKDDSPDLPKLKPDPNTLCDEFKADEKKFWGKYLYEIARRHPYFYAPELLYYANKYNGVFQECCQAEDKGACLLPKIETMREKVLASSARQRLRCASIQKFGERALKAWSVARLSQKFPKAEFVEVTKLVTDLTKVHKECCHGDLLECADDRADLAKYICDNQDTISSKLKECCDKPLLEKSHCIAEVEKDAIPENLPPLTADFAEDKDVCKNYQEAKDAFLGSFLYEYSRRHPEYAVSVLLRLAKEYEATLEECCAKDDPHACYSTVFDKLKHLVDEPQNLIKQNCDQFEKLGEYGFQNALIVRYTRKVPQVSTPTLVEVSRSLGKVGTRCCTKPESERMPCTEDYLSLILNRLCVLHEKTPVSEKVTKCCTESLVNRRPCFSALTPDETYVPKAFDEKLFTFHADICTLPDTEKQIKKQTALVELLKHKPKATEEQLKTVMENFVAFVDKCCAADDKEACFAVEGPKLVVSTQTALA

B1: 抗BCMA单链抗体B48 (scFv)
scFv: QVQLVESGGDLVQPGGSLRLSCAASGFTFDDYAMHWVRQAPGKGLEWVSGISWNSGSIGYADSVKGRFTISRDNAKNSLYLQMNSLRAEDTALYYCAKIAGGAFDIWGQGTMVTVSSGGGGSGGGGSGGGGSDIRMTQSPSTLSASVGDRVTITCQASQNIGHFLAWYQHKPGKAPKLLIYAASTLQSGVPSRFSGSGSGTDFTLTISSLQPEDFGTYYCHHYVTVPLTFGQGTRVEIK
notes: Expressed in E. coli BL21 from pET-26b with an N-terminal pelB signal peptide (secreted to the periplasm); Purified protein carries C-terminal HA and 6xHis tags; also called B48单链抗体; not shown: C-terminal 6xHis tag from the vector pET-26b; vector residues between the insert
The EC50 is the concentration giving half of the maximal effect. Lower therefore signals greater potency. B1: the binding result with BSA蛋白 was “no binding”. The molecule also returned an EC50 with BCMA蛋白 of 34 nM.
